In PMC6327041 (Nature Communications, 2019):

Target: T1, KDM5A1-797 (Homo sapiens, UniProt P29375)
T1 construct: KDM5A1-797 was cloned into a pFASTBAC HTA vector; His (N, cleaved yes); made in house; host or cells: Sf21 insect cells (baculovirus)
T1 sequence (P29375 1-797): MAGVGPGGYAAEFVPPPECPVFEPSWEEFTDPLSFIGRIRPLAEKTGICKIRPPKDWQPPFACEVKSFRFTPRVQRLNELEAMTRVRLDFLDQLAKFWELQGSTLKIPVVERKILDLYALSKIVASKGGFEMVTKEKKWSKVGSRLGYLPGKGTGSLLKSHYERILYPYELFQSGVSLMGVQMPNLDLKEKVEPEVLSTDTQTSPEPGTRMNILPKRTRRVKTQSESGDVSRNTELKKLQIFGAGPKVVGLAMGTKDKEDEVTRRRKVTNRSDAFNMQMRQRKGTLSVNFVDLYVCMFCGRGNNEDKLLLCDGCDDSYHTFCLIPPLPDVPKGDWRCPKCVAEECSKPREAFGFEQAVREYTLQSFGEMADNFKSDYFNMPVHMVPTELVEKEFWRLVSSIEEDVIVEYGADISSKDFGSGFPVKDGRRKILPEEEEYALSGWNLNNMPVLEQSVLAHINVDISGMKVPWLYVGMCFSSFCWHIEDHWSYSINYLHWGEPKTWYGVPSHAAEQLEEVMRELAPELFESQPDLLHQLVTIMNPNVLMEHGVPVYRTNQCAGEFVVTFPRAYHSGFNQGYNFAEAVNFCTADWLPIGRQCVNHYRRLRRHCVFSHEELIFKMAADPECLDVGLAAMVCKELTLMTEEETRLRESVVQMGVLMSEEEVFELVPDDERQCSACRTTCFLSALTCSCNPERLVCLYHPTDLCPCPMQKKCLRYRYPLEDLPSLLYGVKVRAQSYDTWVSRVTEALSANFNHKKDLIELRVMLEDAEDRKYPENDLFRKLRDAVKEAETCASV
Test: HDX-MS of KDM5A with peptides
Protocol: Solution-phase amide HDX experiments were carried out with a fully automated system (CTC HTS PAL, LEAP Technologies, Carrboro, NC; housed inside a 4 °C cabinet).
Peptides were identified using tandem MS (MS^2 or MS/MS) experiments performed with a LTQ linear ion trap mass spectrometer (LTQ Orbitrap XL with ETD, Thermo Fisher, San Jose, CA) over a 70 min gradient. Product ion spectra were acquired in a data-dependent mode and the five most abundant ions were selected for the product ion analysis per scan event. The MS/MS *.raw data files were converted to *.mgf files and then submitted to MASCOT ver2.3 (Matrix Science, London, UK) for peptide identification. […]
For differential HDX experiments, 5 μl of 20 μM KDM5A1-797 was diluted to 25 μl with D2O-containing HDX buffer (40 mM HEPES, 50 mM KCl, pH 7.9) and incubated at 4 °C for 10, 30, 60, 900, and 3600 s. […] Percent deuterium exchange values for peptide isotopic envelopes at each time point were calculated and processed using HDX Workbench. […] The intensity weighted mean m/z centroid value of each peptide envelope was calculated and subsequently converted into a percentage of deuterium incorporation. Statistical significance for the differential HDX data is determined by an unpaired t-test for each time point, a procedure that is integrated into the HDX Workbench software. […]

Row | Substance | deuterium exchange of PHD1 residues Gly300-Ala342, both peptides (H3 10mer (100 µM) and Ac-H3K4me3 21mer (500 µM) both present vs apo) | perturbation of deuterium uptake (Ac-H3K4me3 21mer alone (500 µM) vs apo, 4 °C, triplicate)
1 | H3: unmodified N-terminal H3 tail 10mer peptide (H3 Ala1-Ser10), PHD1 effector ligand | increased protection observed in the PHD1 domain | 
2 | Ac-H3K4me3 21mer: N-terminally acetylated 21mer H3K4me3 peptide, catalytic domain substrate |  | no perturbations are observed
